Assay results as given in patent US20150320880A1, “ANTIBODY DRUG CONJUGATES” (NOVARTIS AG, priority 2013, published 2015).

Legend:
Uke-1 cells = test: ADCC activity in vitro (Calcein release, NK3.3 effector cells); assay type: cell-based; details: effector to target ratio 20 to 1
Method: In brief, Uke-1 cells were stained with Calcein acetoxy-methyl ester (Calcein-AM; Sigma-Aldrich catalog #17783-5MG, St. Louis, Mo.), washed twice, pipetted into a 96-well microtiterplate (96 well, U-bottomed, clear plastic; Corning Costar, catalog #650 160, Tewksbury, Mass.) at a concentration of 5000 cells per well and pre-incubated for 10 min with a serial dilution of the above mentioned antibodies and proteins (from 50,000 to 0.003 μg per ml) before adding the effector NK3.3 cells for 1 hour in an effector to target ratio of 20 to 1. In order to calculate the antibody specific lysis of the target cells, a parallel incubation of target cells only without antibody or effector cells served as a baseline and negative control, whereas the positive control or maximal lysis or hundred percent specific lysis was determined by lysis of target cells only with a 1% Triton-X 100 solution. […] Following a co-incubation of target and effector cells, the microtiterplate was centrifuged and an aliquot of the supernatant fluid was transferred to another microtiterplate (96 well, flat-bottomed, black with clear bottom; (Corning Costar, catalog #3904, Tewksbury, Mass.) and the concentration of free Calcein in solution was determined with a fluorescence counter (Victor 3 ® multilabel counter, Perkin Elmer, Waltham, Mass.).

[1] = biological target: T1, Rat cKIT D1-5 (residues 25-526, C-terminal mFc) (rat); test: SPR (Biacore 2000), antibody captured on anti-human Fc
T1 construct: The entry includes the linker and mouse Fc tag; also called rat cKIT-mFc
T1 chain: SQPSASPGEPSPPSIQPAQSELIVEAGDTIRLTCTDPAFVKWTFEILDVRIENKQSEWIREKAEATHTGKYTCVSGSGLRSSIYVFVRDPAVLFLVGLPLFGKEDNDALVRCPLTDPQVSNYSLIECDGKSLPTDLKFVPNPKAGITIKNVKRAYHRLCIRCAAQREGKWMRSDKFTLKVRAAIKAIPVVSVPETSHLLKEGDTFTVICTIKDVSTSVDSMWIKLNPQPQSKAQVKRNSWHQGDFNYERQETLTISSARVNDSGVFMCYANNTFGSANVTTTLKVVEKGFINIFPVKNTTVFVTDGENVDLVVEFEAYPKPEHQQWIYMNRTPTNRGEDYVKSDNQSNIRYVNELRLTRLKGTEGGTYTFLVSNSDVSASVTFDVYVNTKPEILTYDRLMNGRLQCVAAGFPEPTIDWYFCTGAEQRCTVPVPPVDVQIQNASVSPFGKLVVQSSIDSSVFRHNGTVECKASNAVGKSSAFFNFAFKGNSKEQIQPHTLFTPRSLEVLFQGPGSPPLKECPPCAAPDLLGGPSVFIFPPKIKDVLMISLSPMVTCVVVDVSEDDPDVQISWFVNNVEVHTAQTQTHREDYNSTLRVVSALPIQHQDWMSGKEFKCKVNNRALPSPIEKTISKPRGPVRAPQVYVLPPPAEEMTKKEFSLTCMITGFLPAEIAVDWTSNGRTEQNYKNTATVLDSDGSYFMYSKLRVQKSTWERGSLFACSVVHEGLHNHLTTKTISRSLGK

[2] = biological target: T2, Mouse cKIT ECD, C-terminal 6x His (Sino Biological Inc, catalog number 50530-M08H) (mouse, UniProt P05532 25-527); test: as above
T2 construct: extracellular domain; Bought protein
T2 sequence (looked up): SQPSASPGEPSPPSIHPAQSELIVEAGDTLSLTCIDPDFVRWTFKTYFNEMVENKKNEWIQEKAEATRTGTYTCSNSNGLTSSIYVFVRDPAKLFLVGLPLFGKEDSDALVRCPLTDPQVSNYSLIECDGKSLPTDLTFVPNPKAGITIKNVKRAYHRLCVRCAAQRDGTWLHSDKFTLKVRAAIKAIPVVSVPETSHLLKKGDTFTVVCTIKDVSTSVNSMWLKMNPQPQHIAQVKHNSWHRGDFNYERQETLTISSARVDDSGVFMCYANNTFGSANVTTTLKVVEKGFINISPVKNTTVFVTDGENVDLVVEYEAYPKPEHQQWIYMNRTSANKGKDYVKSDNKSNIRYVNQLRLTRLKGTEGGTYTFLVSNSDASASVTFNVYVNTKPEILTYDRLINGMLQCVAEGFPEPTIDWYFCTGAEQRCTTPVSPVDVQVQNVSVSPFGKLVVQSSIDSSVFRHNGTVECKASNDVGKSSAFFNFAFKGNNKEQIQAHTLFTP

[3] = biological target: T3, Human cKIT D1-5 (human cKIT tr. variant 2, residues 26-520, C-terminal His tag) (human, UniProt P10721 26-524); test: SPR (Biacore 2000), antibody captured on anti-human Fc, cKIT ECD as analyte, 25 C, 1:1 fit
T3 construct: also called human cKIT ECD; Human c-Kit ECD

[4] = test system: GIST T1 subcutaneous tumor xenograft; details: Example 28, single i.v. dose: 9P3 10 mg/kg, IgG1-MCC-DM1 5 mg/kg, IgG1-SPDB-DM4 10 mg/kg, 9P3-MCC-DM1 5 and 10 mg/kg, 9P3-SPDB-DM4 2.5 and 5 mg/kg
Method: The anti-tumor activity of anti-cKIT ADCs was evaluated in several tumor xenograft models.

SCF binding to cKIT = SCF binding to cKIT (Homo sapiens, UniProt P10721); test: Competition assays (ELISA and FACS) of SCF binding to cKIT
human cKIT ECD = biological target: T4, human cKIT ECD (Homo sapiens, UniProt P10721); test: SPR (Biacore 2000) affinity measurement; assay type: binding; details: 25° C.
T4 construct: Human cKIT tr. variant 2, residues 26-520-TAG; made in house; host or cells: HEK293 derived cell lines (293FS), transient transfection
Method: (§1) Affinity of the antibodies to cKIT species orthologues and also to cKIT was determined using SPR technology using a Biacore® 2000 instrument (GE Healthcare, Pittsburgh, Pa.) and with CM5 sensor chips.
(§2) Briefly, HBS-P (0.01 M HEPES, pH 7.4, 0.15 M NaCl, 0.005% Surfactant P20) supplemented with 2% Odyssey® blocking buffer (Li-Cor Biosciences, Lincoln, Nebr.) was used as the running buffer for all the experiments. The immobilization level and analyte interactions were measured by response unit (RU). Pilot experiments were performed to test and confirm the feasibility of the immobilization of the anti-human Fc antibody (Catalog number BR100839, GE Healthcare, Pittsburgh, Pa.) and the capture of the test antibodies.
(§3) For kinetic measurements, the experiments were performed in which the antibodies were captured to the sensor chip surface via the immobilized anti-human Fc antibody and the ability of the cKIT proteins to bind in free solution was determined Briefly, 25 μg/ml of anti-human Fc antibody at pH 5 was immobilized on a CM5 sensor chip through amine coupling at flow rate of 5 μl/minute on all two flow cells to reach 10,500 RUs. 0.1-1 μg/ml of test antibodies were then injected at 10 μl/min for 1 minute. Captured levels of the antibodies were generally kept below 200 RUs. Subsequently, 3.125-50 nM of cKIT receptor extracellular domains (ECD) were diluted in a 2-fold series and injected at a flow rate of 40 μl/min for 3 min over both reference and test flow cells. Table of tested ECDs is listed below. Dissociation of the binding was followed for 10 min. After each injection cycle, the chip surface was regenerated with 3 M MgCl2 at 10 μl/min for 30 s.

mouse cKIT ECD = test: SPR (Biacore 2000) affinity measurement; assay type: binding; details: 25° C.
Method: as §1, §2, §3

[5] = biological target: T5, Human cKIT D1-3 (human cKIT tr. variant 1, residues 26-311, tagged) (human, UniProt P10721 26-311); test: ELISA on coated cKIT subdomain constructs (Example 6)
T5 construct: also called cKIT subdomains 1-3

[6] = biological target: T3, Human cKIT D1-5 (human cKIT tr. variant …); test: SPR (Biacore T100), CM5 chip, method as in Example 7; MCC-DM1 conjugate
[7] = biological target: T6, Cynomolgus monkey cKIT D1-5 (residues 25-520, C-terminal His tag) (cynomolgus monkey, UniProt P10721 25-520 (human entry)); test: SPR (Biacore 2000), antibody captured on anti-human Fc, cKIT ECD as analyte, 25 C, 1:1 fit
T6 construct: the signal peptide was not part of the protein in the assay; also called cyno cKIT; cynomolgus monkey ECD
T6 chain: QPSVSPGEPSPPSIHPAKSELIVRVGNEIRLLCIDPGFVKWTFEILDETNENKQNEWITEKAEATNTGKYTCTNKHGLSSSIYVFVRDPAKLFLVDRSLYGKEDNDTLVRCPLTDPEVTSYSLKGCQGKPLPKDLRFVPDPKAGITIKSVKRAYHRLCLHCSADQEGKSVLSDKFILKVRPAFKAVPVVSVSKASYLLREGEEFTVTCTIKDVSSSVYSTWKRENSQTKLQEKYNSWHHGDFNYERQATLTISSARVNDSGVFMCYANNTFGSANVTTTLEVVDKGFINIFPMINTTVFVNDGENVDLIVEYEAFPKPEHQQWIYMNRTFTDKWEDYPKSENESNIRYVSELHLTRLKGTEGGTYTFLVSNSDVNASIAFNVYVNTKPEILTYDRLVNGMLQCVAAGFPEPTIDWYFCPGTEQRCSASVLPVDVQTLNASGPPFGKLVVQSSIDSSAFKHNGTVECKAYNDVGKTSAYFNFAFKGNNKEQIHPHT

[8] = biological target: T2, Mouse cKIT ECD, C-terminal 6x His (Sino …); test: as above
[9] = biological target: T3, Human cKIT D1-5 (human cKIT tr. variant …); test: SPR (Biacore T100), CM5 chip, method as in Example 7; unconjugated antibody

T3 sequence (P10721 other isoform, or with tags, fused parts or gaps mutant limits assumed): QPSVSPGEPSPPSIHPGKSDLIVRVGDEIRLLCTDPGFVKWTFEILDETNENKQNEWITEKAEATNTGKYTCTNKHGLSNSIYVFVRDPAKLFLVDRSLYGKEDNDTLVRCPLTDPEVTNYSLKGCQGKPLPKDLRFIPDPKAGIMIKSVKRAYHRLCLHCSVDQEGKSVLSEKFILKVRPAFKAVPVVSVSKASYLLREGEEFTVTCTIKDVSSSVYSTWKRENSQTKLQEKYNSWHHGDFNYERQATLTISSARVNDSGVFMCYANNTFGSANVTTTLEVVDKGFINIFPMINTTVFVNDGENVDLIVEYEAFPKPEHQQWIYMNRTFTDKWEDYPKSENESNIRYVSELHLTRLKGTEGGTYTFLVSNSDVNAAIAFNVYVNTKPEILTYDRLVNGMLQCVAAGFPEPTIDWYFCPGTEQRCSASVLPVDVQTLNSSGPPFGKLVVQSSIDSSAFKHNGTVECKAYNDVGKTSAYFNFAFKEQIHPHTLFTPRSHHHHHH
Chain of SCF binding to cKIT (P10721 26-524 limits assumed): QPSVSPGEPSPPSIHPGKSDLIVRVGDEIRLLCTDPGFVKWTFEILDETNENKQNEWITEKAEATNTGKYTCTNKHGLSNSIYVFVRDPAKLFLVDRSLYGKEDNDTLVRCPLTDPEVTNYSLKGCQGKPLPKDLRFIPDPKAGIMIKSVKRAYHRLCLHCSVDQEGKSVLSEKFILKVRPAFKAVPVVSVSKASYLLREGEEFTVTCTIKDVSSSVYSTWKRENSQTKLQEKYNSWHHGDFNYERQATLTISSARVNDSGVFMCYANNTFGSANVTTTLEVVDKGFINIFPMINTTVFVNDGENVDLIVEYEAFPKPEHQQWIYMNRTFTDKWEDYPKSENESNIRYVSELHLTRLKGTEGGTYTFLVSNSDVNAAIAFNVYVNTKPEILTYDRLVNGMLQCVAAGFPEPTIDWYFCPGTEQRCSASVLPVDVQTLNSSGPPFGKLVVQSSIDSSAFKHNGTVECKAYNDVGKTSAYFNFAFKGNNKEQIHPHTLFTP
T5 sequence (P10721 other isoform, or with tags, fused parts or gaps mutant limits assumed): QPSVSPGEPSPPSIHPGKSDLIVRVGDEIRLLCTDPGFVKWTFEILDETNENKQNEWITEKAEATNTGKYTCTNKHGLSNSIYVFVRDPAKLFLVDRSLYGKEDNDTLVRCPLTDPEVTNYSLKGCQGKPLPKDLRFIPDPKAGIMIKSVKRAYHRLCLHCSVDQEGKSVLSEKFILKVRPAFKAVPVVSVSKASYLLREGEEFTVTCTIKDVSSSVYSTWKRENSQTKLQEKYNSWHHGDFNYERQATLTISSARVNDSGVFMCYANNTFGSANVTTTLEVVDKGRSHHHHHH

Molecule: MabCampath [reference compound]
- ADCC killing of target cells (Uke-1 cells): mediated ADCC killing of the target cells

B1: anti-cKIT antibody 9P3 (antibody, V domains shown)
VH: EVRLVESEGGLVQPRSSMKLSCTASGFTFSDYYMAWVRQVPEKGLEWVANINYDGSSTYYLDSLKSRFIISRDNAKNILYLQMSSLKSEDTATYYCARGDYYGTTYWYFDVWGTGTTVTVSS
VL: DIQMTQTTSSLSASLGDRVTISCRASQDISNYLNWYQQKPDGTVKLLIYYTSRLQSGVPSRFSGSGSGTDYSLTISNLEQEDIATYFCQQGKKLWSFGGGTKLEIKR
notes: Hybridoma-derived mouse variable domains; also called murine 9P3
- binding result [1]: no binding (tested: 3.125-50 nM of cKIT ECD injected)
- binding result [2]: no binding (tested: 3.125-50 nM of cKIT ECD injected)
- Kd [3]: 20 nM
- anti-tumor activity (tumor volume) [4]: Neither the control non-specific IgG1 ADCs nor the unconjugated 9P3 were efficacious
- blocking of SCF binding to cKIT (SCF binding to cKIT): partial blocking of SCF binding to cKIT
- Affinity human cKIT (nM) (human cKIT ECD): nanomolar level
- Affinity mouse cKIT (nM) (mouse cKIT ECD): Not reactive

B2: NEG026 (antibody, human IgG1, kappa, V domains shown)
VH: EVQLVESGGGLVQPGGSLRLSCAASGFTFSDYYMAWVRQAPGKGLEWVANINQNTGSTYYVDSVQGRFTISRDNAKNSLYLQMNSLRAEDTAVYYCARGDYYGTTYWYFDVWGQGTTVTVSS
VL: EIVMTQSPATLSLSPGERATLSCRASQDISNYLNWYQQKPGQAPRLLIYYTSRLQSGIPARFSGSGSGTDYTLTISSLEPEDFAVYYCQQGKKLWSFGGGTKVEIKR
notes: Humanized, optimized variant of 9P3; human IgG1 kappa
- binding result [1]: no binding (tested: 3.125-50 nM of cKIT ECD injected)
- binding result [2]: no binding (tested: 3.125-50 nM of cKIT ECD injected)
- binding result [5]: binds

B3: NEG086-MCC-DM1 (antibody, human IgG1, kappa, V domains shown)
VH: EVQLVESGGGLVQPGGSLRLSCAASGFTFSDYYMAWVRQAPGKGLEWVANINQIAGSTYYVDSVQGRFTISRDNAKNSLYLQMNSLRAEDTAVYYCARGDYYGTTYWYFDVWGQGTTVTVSS
VL: DIQMTQSPSSLSASVGDRVTITCRASQSISSYLNWYQQKPGKAPKLLIYYTSRLQSGVPSRFSGSGSGTDFTLTISSLQPEDFATYYCQQGRRLWSFGGGTKVEIKR
modifications: DM1 linked through the MCC (SMCC) linker to primary amines of the antibody, sites not stated; DM1 linked through the MCC (SMCC) linker to primary amines of the antibody, sites not stated; average MAR 3.5 (Table 7)
notes: Antibody drug conjugate of NEG086
- Kd [6]: 1.8 nM

B4: 20376 (antibody, human IgG1, lambda, V domains shown)
VH: QVQLVQSGAEVKKPGSSVKVSCKASGGTFSSYAISWVRQAPGQGLEWMGGIIPMSGRTTYAQKFQGRVTITADESTSTAYMELSSLRSEDTAVYYCARDYGPEAPDYGQSTSYFWYYAFDPWGQGTLVTVSS
VL: DIELTQPPSVSVSPGQTASITCSGDNIPSYFVHWYQQKPGQAPVLVIYDDNDRPSGIPERFSGSNSGNTATLTISGTQAEDEADYYCSSWDQDTVVFGGGTKLTVLG
notes: human IgG1 lambda
- binding result [1]: no binding (tested: 3.125-50 nM of cKIT ECD injected)
- Kd [7]: 4.8 nM
- Kd [3]: 9.1 nM
- Kd [8]: 2.5 nM
- Kd [9]: 9.1 nM
